For test [1], the target named is PDGF receptor on Swiss mouse 3T3 cells (mouse (endogenous in Swiss 3T3)) (UniProt P05622). As to the kind of experiment: radioligand binding.
The target of test [2] is EGF receptor on Swiss mouse 3T3 cells (mouse (endogenous in Swiss 3T3)) (UniProt Q01279). As to the kind of experiment: radioligand binding.

UniProt P05622, sequence (P05622 32-1098): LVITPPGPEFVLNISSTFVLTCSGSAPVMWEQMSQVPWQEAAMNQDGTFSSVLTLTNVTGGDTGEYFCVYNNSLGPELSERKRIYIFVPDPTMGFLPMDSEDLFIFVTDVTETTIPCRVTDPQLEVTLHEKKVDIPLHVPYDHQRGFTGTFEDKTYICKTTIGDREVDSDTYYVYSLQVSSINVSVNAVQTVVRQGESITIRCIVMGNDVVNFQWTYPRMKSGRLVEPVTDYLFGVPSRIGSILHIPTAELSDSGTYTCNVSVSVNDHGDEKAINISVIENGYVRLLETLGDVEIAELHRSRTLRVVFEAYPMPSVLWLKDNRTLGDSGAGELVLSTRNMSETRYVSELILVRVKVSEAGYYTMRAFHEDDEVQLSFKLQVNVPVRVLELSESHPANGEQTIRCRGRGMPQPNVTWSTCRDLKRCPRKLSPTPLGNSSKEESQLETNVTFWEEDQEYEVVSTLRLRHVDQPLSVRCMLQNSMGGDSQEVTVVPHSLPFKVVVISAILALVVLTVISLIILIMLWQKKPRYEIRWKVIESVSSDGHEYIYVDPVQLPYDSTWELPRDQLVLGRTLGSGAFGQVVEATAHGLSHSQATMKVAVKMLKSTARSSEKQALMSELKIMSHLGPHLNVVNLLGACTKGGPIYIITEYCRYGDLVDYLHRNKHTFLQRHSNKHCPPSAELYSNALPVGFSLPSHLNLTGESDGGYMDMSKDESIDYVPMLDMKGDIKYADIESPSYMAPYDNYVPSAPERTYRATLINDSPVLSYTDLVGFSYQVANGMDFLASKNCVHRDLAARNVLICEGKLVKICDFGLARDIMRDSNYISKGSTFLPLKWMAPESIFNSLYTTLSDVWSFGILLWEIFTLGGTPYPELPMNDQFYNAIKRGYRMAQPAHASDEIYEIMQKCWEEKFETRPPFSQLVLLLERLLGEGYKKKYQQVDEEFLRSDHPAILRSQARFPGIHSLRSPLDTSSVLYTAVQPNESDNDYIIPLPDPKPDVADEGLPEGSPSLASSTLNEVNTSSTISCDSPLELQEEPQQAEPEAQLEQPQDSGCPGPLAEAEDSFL

In test [1], “125I-platelet-derived growth factor (from UniProt P04085 87-211; P01127 82-190) (ligand)” came in with a binding to acid-treated cultures, % of binding to untreated cultures of 103%.

Turning to 125I-epidermal growth factor (ligand), in test [2], the % of prebound ligand removed by 3 min 0.1% acetic acid is 78%; the concentration for a half-maximal effect (EC50) was 1.3 nM; the binding to acid-treated cultures, % of binding to untreated cultures came to 101%; the decrease in 125I-EGF binding after preincubation with 2 ng/ml PDGF is 60%. In test [2], the half-maximal binding after preincubation with 0.5 ng/ml PDGF came out at 1.6 nM and the half-maximal binding after preincubation with 10 ng/ml PDGF came out at 2 nM.

The EC50 is the concentration giving half of the maximal effect. A low value points to an effect from little substance.

For the origin of these results see paper PMC2112417.
